Reference: publication doi:10.1101/557132

Legend:
[1] = biological target: human SNAP_GLP1R on CHO-K1 cells (human) (UniProt P43220)
[2] = biological target: SNAP_GLP1R on YFP-AD293 cells (human) (UniProt P43220)
[3] = biological target: SNAP_GLP1R on YFP-AD293 cells (human) (UniProt P43220); test: fluorescent ligand labelling of cells

Sequence of human SNAP_GLP1R on CHO-K1 cells (human) (P43220 24-463): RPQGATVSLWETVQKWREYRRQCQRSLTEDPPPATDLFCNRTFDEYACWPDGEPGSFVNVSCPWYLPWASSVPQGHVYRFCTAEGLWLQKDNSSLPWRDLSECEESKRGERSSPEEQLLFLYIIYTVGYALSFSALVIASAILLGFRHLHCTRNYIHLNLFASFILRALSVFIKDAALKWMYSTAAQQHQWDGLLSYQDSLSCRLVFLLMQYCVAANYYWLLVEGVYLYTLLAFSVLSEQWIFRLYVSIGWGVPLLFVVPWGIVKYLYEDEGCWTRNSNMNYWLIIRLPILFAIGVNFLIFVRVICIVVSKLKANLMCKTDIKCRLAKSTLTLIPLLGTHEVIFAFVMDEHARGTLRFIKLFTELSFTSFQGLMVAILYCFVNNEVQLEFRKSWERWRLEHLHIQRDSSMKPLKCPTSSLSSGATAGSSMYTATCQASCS
Sequence of SNAP_GLP1R on YFP-AD293 cells (human) (P43220 24-463): as above

Substance | block of GLP-1-induced cAMP production through GLP1R (cAMP-Glo) [1] [nM] | cAMP production (cAMP-Glo) [2] [nM] | cAMP production (cAMP-Glo) with the positive allosteric modulator BETP [2] [nM] | cAMP production (cAMP-Glo) with the positive allosteric modulator BETP [1] [nM] | concentration at maximum labeling [3] [nM]
Exendin4(9-39) (peptide) | 38.4 |  |  |  | 
LUXendin555 (peptide) |  | 130 | 28.4 |  | 
S39C-Exendin4(9-39) (peptide) | 34.8 |  |  |  | 
LUXendin645 (peptide) | 73.1 |  |  | 9.3 | 100
